Experimental data reported in paper PMC12045370.

Key:
[1] = target: microtubules grown from purified bovine brain tubulin (bovine) (UniProt Q6B856); assay: optical trap rupture force assay; untreated kinetochores on anti-penta-His beads; dynamic microtubules grown from coverslip-anchored GMPCPP seeds; BRB80, 1 mM GTP, 23°C; force ramp 0.25 pN/s until detachment
[2] = target: microtubules grown from purified bovine brain tubulin (bovine) (UniProt Q6B856); assay: optical trap rupture force assay; benzonase-treated kinetochores on anti-penta-His beads; dynamic microtubules grown from coverslip-anchored GMPCPP seeds; BRB80, 1 mM GTP, 23°C; force ramp 0.25 pN/s until detachment

UniProt Q6B856, sequence (Q6B856 whole entry, looked up): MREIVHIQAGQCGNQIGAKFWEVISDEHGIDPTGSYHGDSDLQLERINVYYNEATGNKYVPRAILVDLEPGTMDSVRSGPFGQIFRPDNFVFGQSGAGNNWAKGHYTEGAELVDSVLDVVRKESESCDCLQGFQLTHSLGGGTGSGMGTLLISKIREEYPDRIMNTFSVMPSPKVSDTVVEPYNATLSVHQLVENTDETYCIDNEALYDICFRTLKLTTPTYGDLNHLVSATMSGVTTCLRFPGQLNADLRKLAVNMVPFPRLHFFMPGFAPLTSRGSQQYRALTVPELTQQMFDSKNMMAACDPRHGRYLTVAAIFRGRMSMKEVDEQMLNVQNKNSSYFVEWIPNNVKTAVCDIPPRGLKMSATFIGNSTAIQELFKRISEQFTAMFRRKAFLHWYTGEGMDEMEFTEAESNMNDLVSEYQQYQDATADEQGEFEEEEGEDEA

Substance | median rupture force [1] | median rupture force [2] [pN]
S. cerevisiae kinetochore particles purified via Dsn1-6His-3M3DK (from UniProt P40568 1-576) (complex) | 7.2 | 
K. marxianus kinetochore particles purified via Dsn1-6His-3M3DK (from UniProt A0ABX6F0Z3 1-547) (complex) | 7.5 pN | 6.4
